Test results reported in patent US10941182 (Amgen, dated 2021).
Like-named read-outs stand apart in the source and are kept apart here. Values belong to the binder of their own block, whether it stands above or below them. Starred links: 1 amine or outer side, 2 acyl side, 3 side chain; linkers in the order of their positions; H or OH if unused. Non-standard residues stand in square brackets, D forms with d. Primed or numbered codes have the meaning given here. No end group written: not given here. *: point of attachment. Propanoyl(3-triazol-4-yl) = O=C(CCc1cn([*:1])nn1)[*:2]; PEG12 = NCCOCCOCCOCCOCCOCCOCCOCCOCCOCCOCCOCCOCCC(=O)O; dBip = N[C@H](Cc1ccc(-c2ccccc2)cc1)C(=O)O; BhLeu = source's own code, no definition; BhPhe = source's own code, no definition; Oic = O=C(O)[C@@H]1C[C@@H]2CCCC[C@@H]2N1; Phe(4-Cl) = N[C@@H](Cc1ccc(Cl)cc1)C(=O)O; dPhe(4-Cl) = N[C@H](Cc1ccc(Cl)cc1)C(=O)O; Phe(4-I) = N[C@@H](Cc1ccc(I)cc1)C(=O)O; γGlu = O=C(O)[C@H](CCC(=O)[*:2])N[*:1]; d1Nal = N[C@H](Cc1cccc2ccccc12)C(=O)O; NMeR = CN[C@@H](CCCNC(=N)N)C(=O)O; Tridecanoyl = CCCCCCCCCCCCC(=O)*; hArg = N=C(N)NCCCC[C@H](N)C(=O)O; Cha = N[C@@H](CC1CCCCC1)C(=O)O; NMeL = CN[C@@H](CC(C)C)C(=O)O; AC4Abu″ = not defined here; code O = not defined here; Nle = CCCC[C@H](N)C(=O)O; AEEA = NCCOCCOCC(=O)O; βAla = NCCC(=O)O; Mpa = O=C(O)CCS

What was measured:
Experiment in all cases: cell-based or functional assay
[1] = target: T1, rat APJ receptor (rat, UniProt Q9JHG3 1-377)
T1 sequence (looked up): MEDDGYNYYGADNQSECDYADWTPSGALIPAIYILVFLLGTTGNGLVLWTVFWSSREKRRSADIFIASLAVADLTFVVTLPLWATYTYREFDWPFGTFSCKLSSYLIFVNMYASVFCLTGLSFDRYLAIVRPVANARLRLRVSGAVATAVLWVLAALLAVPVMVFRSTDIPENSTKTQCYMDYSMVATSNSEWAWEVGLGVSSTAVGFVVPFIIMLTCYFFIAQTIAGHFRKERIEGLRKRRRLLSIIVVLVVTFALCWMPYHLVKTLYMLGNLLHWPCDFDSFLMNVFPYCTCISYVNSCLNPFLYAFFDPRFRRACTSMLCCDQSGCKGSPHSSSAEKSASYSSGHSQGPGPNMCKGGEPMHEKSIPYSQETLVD

[2] = target: T2, human APJ receptor (human, UniProt P35414 1-380)
T2 sequence (looked up): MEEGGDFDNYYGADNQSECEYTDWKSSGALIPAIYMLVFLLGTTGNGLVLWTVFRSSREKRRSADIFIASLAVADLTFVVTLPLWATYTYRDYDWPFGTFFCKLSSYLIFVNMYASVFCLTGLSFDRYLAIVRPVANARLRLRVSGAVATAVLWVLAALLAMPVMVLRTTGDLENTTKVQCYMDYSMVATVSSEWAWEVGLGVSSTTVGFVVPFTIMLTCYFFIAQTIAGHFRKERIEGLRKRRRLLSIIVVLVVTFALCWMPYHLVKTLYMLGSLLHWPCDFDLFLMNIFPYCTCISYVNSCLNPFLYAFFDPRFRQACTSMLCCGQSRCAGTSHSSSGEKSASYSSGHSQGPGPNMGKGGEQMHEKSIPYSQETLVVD

[3] = target: T3, rat APJ receptor (rat, UniProt Q9JHG3 1-377); remark: listed apart in the source
T3 sequence (looked up): T1 sequence (looked up)

[4] = target: T4, human APJ receptor (human, UniProt P35414 1-380); remark: listed apart in the source
T4 sequence (looked up): T2 sequence (looked up)

EC50 Rat APJ Receptor [1]: 0.915 nM
B1: apelin polypeptide SEQ ID NO: 56 (peptide)
peptide: Ac-[hArg][hArg]Q[hArg]P[NMeR][Cha]SHKG[Oic][Nle]P[Phe(4-Cl)]-OH
SMILES: CCCC[C@H](NC(=O)[C@@H]1C[C@@H]2CCCC[C@@H]2N1C(=O)CNC(=O)[C@H](CCCCN)NC(=O)[C@H](Cc1c[nH]cn1)NC(=O)[C@H](CO)NC(=O)[C@H](CC1CCCCC1)NC(=O)[C@H](CCCNC(=N)N)N(C)C(=O)[C@@H]1CCCN1C(=O)[C@H](CCCCNC(=N)N)NC(=O)[C@H](CCC(N)=O)NC(=O)[C@H](CCCCNC(=N)N)NC(=O)[C@H](CCCCNC(=N)N)NC(C)=O)C(=O)N1CCC[C@H]1C(=O)N[C@@H](Cc1ccc(Cl)cc1)C(=O)O

EC50 Human APJ Receptor [2]: 34.2 nM
EC50 Rat APJ Receptor [1]: 52.2 nM
Binder: {20K‑mPEGReg-Propanoyl(3-triazol-4-yl)}-[hArg][dR]Q[hArg]P[dR][NMeL]SHKG[Oic][Phe(4-I)]P[dBip]-OH (also: 20 kDa PEG conjugate) [apelin polypeptide SEQ ID NO: 103]

EC50 Rat APJ Receptor [1]: 0.253 nM
B2: apelin polypeptide SEQ ID NO: 97 (peptide)
peptide: KFRRQRP[hArg][Cha]SHKG[Oic][Nle]P[Phe(4-Cl)]-OH
modifications: not fully specified (N-terminus); printed as [MerPr](20K mPEGacetamide)KFRRQRP[hArg][Cha]SHKG[Oic][Nle]P[4-Cl-F]{COOH}; also: 20K mPEG acetamide conjugate on MerPr

EC50 Rat APJ Receptor [3]: 20.4 nM
EC50 Human APJ Receptor [4]: 14.9 nM
B3: SEQ ID NO: 324 (peptide)
peptide: Tridecanoyl-[γGlu][AEEA][AEEA][hArg][dR]Q[hArg]P[dR][NMeL]SA[Nle]G[Oic][Phe(4-I)]P[dBip]-OH
SMILES: CCCCCCCCCCCCC(=O)N[C@@H](CCC(=O)NCCOCCOCC(=O)NCCOCCOCC(=O)N[C@@H](CCCCNC(=N)N)C(=O)N[C@H](CCCNC(=N)N)C(=O)N[C@@H](CCC(N)=O)C(=O)N[C@@H](CCCCNC(=N)N)C(=O)N1CCC[C@H]1C(=O)N[C@H](CCCNC(=N)N)C(=O)N(C)[C@@H](CC(C)C)C(=O)N[C@@H](CO)C(=O)N[C@@H](C)C(=O)N[C@@H](CCCC)C(=O)NCC(=O)N1[C@H](C(=O)N[C@@H](Cc2ccc(I)cc2)C(=O)N2CCC[C@H]2C(=O)N[C@H](Cc2ccc(-c3ccccc3)cc2)C(=O)O)C[C@@H]2CCCC[C@@H]21)C(=O)O

EC50 Human APJ Receptor [2]: 0.083 nM
EC50 Rat APJ Receptor [1]: 0.18 nM
Binder: [PEG12]KFRRQRP[hArg][Cha]SHKG[Oic][Nle]P[Phe(4-Cl)]-OH (also: PEG-apelin peptide conjugate) [apelin polypeptide SEQ ID NO: 102]

EC50 Rat APJ Receptor [1]: 13.8 nM
Binder: Tridecanoyl-[AC4Abu″][AEEA][AEEA][hArg]Q[dR]P[NMeR][Cha]SHKG[Oic][Nle]P[dPhe(4-Cl)]-OH (reading uncertain) [apelin polypeptide SEQ ID NO: 230]

EC50 Rat APJ Receptor [3]: 10.6 nM
EC50 Human APJ Receptor [4]: 13.6 nM
B4: SEQ ID NO: 312 (peptide)
peptide: Tridecanoyl-[γGlu][AEEA][AEEA][hArg][dR]Q[hArg]P[dR][NMeL]SH[Nle]G[Oic][Phe(4-I)]P[dBip]-OH
SMILES: CCCCCCCCCCCCC(=O)N[C@@H](CCC(=O)NCCOCCOCC(=O)NCCOCCOCC(=O)N[C@@H](CCCCNC(=N)N)C(=O)N[C@H](CCCNC(=N)N)C(=O)N[C@@H](CCC(N)=O)C(=O)N[C@@H](CCCCNC(=N)N)C(=O)N1CCC[C@H]1C(=O)N[C@H](CCCNC(=N)N)C(=O)N(C)[C@@H](CC(C)C)C(=O)N[C@@H](CO)C(=O)N[C@@H](Cc1c[nH]cn1)C(=O)N[C@@H](CCCC)C(=O)NCC(=O)N1[C@H](C(=O)N[C@@H](Cc2ccc(I)cc2)C(=O)N2CCC[C@H]2C(=O)N[C@H](Cc2ccc(-c3ccccc3)cc2)C(=O)O)C[C@@H]2CCCC[C@@H]21)C(=O)O

EC50 Human APJ Receptor [2]: 7.46 nM
B5: apelin polypeptide SEQ ID NO: 708 (peptide)
peptide: [code O]F[hArg][hArg]Q[hArg]P[hArg][Cha]SHKG[Oic][βAla]P[Phe(4-Cl)]
modifications: reading uncertain; also: printed as OF[hArg][hArg]Q[hArg]P[hArg][Cha]SHKG[Oic][bAla]P[4-Cl-F]

EC50 Rat APJ Receptor [1]: 0.503 nM
B6: apelin polypeptide SEQ ID NO: 692 (peptide)
peptide: [code O]F[hArg][hArg][BhLeu][hArg]P[hArg][Cha]SHKG[Oic][Nle]P[Phe(4-Cl)]
modifications: reading uncertain; also: printed as OF[hArg][hArg][BhLeu][hArg]P[hArg][Cha]SHKG[Oic][Nle]P[4-Cl-F]

EC50 Rat APJ Receptor [3]: 44.7 nM
EC50 Human APJ Receptor [4]: 34.1 nM
B7: SEQ ID NO: 334 (peptide)
peptide: Tridecanoyl-[γGlu][AEEA][AEEA][hArg][dR]Q[Nle]P[dR][NMeL]AAKG[Oic][Phe(4-I)]P[dBip]-OH
SMILES: CCCCCCCCCCCCC(=O)N[C@@H](CCC(=O)NCCOCCOCC(=O)NCCOCCOCC(=O)N[C@@H](CCCCNC(=N)N)C(=O)N[C@H](CCCNC(=N)N)C(=O)N[C@@H](CCC(N)=O)C(=O)N[C@@H](CCCC)C(=O)N1CCC[C@H]1C(=O)N[C@H](CCCNC(=N)N)C(=O)N(C)[C@@H](CC(C)C)C(=O)N[C@@H](C)C(=O)N[C@@H](C)C(=O)N[C@@H](CCCCN)C(=O)NCC(=O)N1[C@H](C(=O)N[C@@H](Cc2ccc(I)cc2)C(=O)N2CCC[C@H]2C(=O)N[C@H](Cc2ccc(-c3ccccc3)cc2)C(=O)O)C[C@@H]2CCCC[C@@H]21)C(=O)O

EC50 Rat APJ Receptor [3]: 45.9 nM
EC50 Human APJ Receptor [4]: 7.44 nM
B8: SEQ ID NO: 318 (peptide)
peptide: Tridecanoyl-[γGlu][AEEA][AEEA][hArg][dR]Q[hArg]P[dR][NMeL]AH[Nle]G[Oic][Phe(4-I)]P[dBip]-OH
SMILES: CCCCCCCCCCCCC(=O)N[C@@H](CCC(=O)NCCOCCOCC(=O)NCCOCCOCC(=O)N[C@@H](CCCCNC(=N)N)C(=O)N[C@H](CCCNC(=N)N)C(=O)N[C@@H](CCC(N)=O)C(=O)N[C@@H](CCCCNC(=N)N)C(=O)N1CCC[C@H]1C(=O)N[C@H](CCCNC(=N)N)C(=O)N(C)[C@@H](CC(C)C)C(=O)N[C@@H](C)C(=O)N[C@@H](Cc1c[nH]cn1)C(=O)N[C@@H](CCCC)C(=O)NCC(=O)N1[C@H](C(=O)N[C@@H](Cc2ccc(I)cc2)C(=O)N2CCC[C@H]2C(=O)N[C@H](Cc2ccc(-c3ccccc3)cc2)C(=O)O)C[C@@H]2CCCC[C@@H]21)C(=O)O

EC50 Rat APJ Receptor [1]: 0.188 nM
B9: apelin polypeptide SEQ ID NO: 686 (peptide)
peptide: [code O][BhPhe][hArg][hArg]Q[hArg]P[hArg][Cha]SHKG[Oic][Nle]P[Phe(4-Cl)]
modifications: reading uncertain; also: printed as O[BhPhe][hArg][hArg]Q[hArg]P[hArg][Cha]SHKG[Oic][Nle]P[4-Cl-F]

EC50 Human APJ Receptor [2]: 46.7 nM
EC50 Rat APJ Receptor [1]: 150 nM
Binder: {20K mPEGacetamide}-[Mpa]QRP[hArg][Cha]SHKG[Oic][Nle]P[Phe(4-Cl)]-OH (numbers in words are those of the source; also: 20 kDa PEG conjugate) [apelin polypeptide SEQ ID NO: 101]

EC50 Rat APJ Receptor [1]: 30.3 nM
Binder: Tridecanoyl-[AC4Abu″][AEEA][AEEA][hArg]Q[dR]P[NMeR][Cha]SHKG[Oic][Nle][d1Nal]-OH (reading uncertain) [apelin polypeptide SEQ ID NO: 165]

EC50 Rat APJ Receptor [3]: 26.5 nM
EC50 Human APJ Receptor [4]: 16.3 nM
B10: SEQ ID NO: 322 (peptide)
peptide: Tridecanoyl-[γGlu][AEEA][AEEA][hArg][dR]Q[Nle]P[dR][NMeL]AHKG[Oic][Phe(4-I)]P[dBip]-OH
SMILES: CCCCCCCCCCCCC(=O)N[C@@H](CCC(=O)NCCOCCOCC(=O)NCCOCCOCC(=O)N[C@@H](CCCCNC(=N)N)C(=O)N[C@H](CCCNC(=N)N)C(=O)N[C@@H](CCC(N)=O)C(=O)N[C@@H](CCCC)C(=O)N1CCC[C@H]1C(=O)N[C@H](CCCNC(=N)N)C(=O)N(C)[C@@H](CC(C)C)C(=O)N[C@@H](C)C(=O)N[C@@H](Cc1c[nH]cn1)C(=O)N[C@@H](CCCCN)C(=O)NCC(=O)N1[C@H](C(=O)N[C@@H](Cc2ccc(I)cc2)C(=O)N2CCC[C@H]2C(=O)N[C@H](Cc2ccc(-c3ccccc3)cc2)C(=O)O)C[C@@H]2CCCC[C@@H]21)C(=O)O

EC50 Human APJ Receptor [2]: 0.515 nM
Binder: Tridecanoyl-[AC4Abu″][AEEA][AEEA]RQRP[hArg][NMeL]SHKG[Oic][Phe(4-I)]P[dBip]-OH (reading uncertain) [apelin polypeptide SEQ ID NO: 212]

EC50 Human APJ Receptor [2]: 0.152 nM
Binder: [hArg]Q[hArg]P[NMeR][Cha]SHKG[Oic][Nle]P[Phe(4-Cl)] [apelin polypeptide SEQ ID NO: 674]
